The record followed here is article PMC7527217 (Science Advances, 2020).

Like-named read-outs stand apart in the source and are kept apart here.

Test [1] has as its target recombinant trBcl-2L1 (Trichoplax adhaerens Bcl-2-like protein 1), lacking the 33 N-terminal and 29 C-terminal residues (Trichoplax adhaerens). In words: ITC.
For test [2], the target named is recombinant trBcl-2L2 (Trichoplax adhaerens Bcl-2-like protein 2), lacking the 7 N-terminal and 34 C-terminal residues (Trichoplax adhaerens). In words: ITC. Background: ITC needs no label: the signal is the heat of the interaction.
In test [3] the target is T1, Flag-tagged trBcl-2L1 (Trichoplax adhaerens, UniProt A0A1B1IJP0 1-215).
T1 sequence (looked up): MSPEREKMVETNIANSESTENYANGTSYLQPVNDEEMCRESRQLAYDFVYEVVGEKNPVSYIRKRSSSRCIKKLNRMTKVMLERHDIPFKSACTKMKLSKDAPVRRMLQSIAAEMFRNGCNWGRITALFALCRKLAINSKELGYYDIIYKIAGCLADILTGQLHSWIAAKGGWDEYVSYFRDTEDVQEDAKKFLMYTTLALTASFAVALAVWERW
In words: FRET or BRET. (Bioluminescence resonance energy transfer reports proximity on the nanometre scale.)

For test [4], the target named is T2, Flag-tagged trBcl-2L2 (Trichoplax adhaerens, UniProt A0A1B1IJN9 1-211).
T2 sequence (looked up): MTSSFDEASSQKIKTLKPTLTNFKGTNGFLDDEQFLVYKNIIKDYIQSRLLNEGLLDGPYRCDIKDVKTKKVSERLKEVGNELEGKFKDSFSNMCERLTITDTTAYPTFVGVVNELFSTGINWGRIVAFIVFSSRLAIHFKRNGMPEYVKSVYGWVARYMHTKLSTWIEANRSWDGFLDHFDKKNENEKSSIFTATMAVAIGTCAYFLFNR
In words: FRET or BRET.

In test [5] the target is recombinant trBcl-2L1 (Trichoplax adhaerens Bcl-2-like protein 1), lacking the 33 N-terminal and 29 C-terminal residues (Trichoplax adhaerens). In words: ITC. This is another data set of the same source.
The target of test [6] is recombinant trBcl-2L2 (Trichoplax adhaerens Bcl-2-like protein 2), lacking the 7 N-terminal and 34 C-terminal residues (Trichoplax adhaerens). In words: ITC. The source holds these as a separate data set.
In test [7] the target is recombinant human Bcl-2 (residues 10 to 203) (human, UniProt P10415 10-203). In words: ITC.
Test [8] has as its target recombinant human Bcl-xL (residues 1 to 209, Δloop45 to 84) (human, UniProt Q07817-1 1-209, Δloop45 to 84). Put plainly: ITC.
For test [9], the target named is T3, recombinant human Bcl-w (residues 9 to 152) (human, UniProt Q92843 9-152).
T3 sequence (looked up): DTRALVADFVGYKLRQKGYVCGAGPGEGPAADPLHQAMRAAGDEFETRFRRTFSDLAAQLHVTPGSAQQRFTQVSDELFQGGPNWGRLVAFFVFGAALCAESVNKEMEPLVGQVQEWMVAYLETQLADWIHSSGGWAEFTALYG
In words: ITC.

Test [10] deals with recombinant human Mcl-1 (residues 171 to 320) (human, UniProt Q07820 171-320). In words: ITC.
The target of test [11] is T4, recombinant human A1/Bfl-1 (residues 1 to 151) (human, UniProt Q16548 1-151).
T4 sequence (looked up): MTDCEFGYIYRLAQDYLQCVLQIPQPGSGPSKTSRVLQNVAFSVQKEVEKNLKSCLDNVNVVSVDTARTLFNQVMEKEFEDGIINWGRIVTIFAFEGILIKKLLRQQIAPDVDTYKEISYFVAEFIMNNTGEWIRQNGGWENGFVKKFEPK
In words: ITC.

Sequence of recombinant human Mcl-1 (residues 171 to 320) (Q07820 171-320): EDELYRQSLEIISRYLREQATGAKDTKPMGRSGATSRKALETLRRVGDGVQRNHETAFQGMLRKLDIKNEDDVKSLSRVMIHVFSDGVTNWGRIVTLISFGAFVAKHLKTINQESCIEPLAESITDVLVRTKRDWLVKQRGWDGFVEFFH
Sequence of recombinant human Bcl-2 (residues 10 to 203) (P10415 10-203): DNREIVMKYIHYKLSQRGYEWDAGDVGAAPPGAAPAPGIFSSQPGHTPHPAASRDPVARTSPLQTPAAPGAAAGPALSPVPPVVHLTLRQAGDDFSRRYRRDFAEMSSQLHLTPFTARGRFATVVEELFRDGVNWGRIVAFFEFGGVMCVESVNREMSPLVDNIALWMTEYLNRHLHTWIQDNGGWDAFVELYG

The Kd is a measure of binding affinity in units of concentration. As for hsPuma BH3 peptide, the Kd in test [1] came to 5 nM; in [2], 81 nM.

Take hsBim BH3 peptide: the results for the Kd in test [1] and in test [2] were 83 nM and 41 nM, respectively.

Regarding hsBid BH3 peptide, the Kd in [1] is 124 nM; in test [2], 170 nM.

In the case of hsBax BH3 peptide, the Kd came to 7 nM in [1] and 15 nM in test [2].

B1: EGFP-tagged trBax (natural protein, Trichoplax adhaerens, UniProt A0A1B1IJP1 1-241, looked up)
chain: MADFTYVLITRSISTIFSSSCLIAMAHVKSVTSTPTTTTTTTTQSCPRREENLKEIAAESKKLFLDFIADRSAKDGQDQGCISQLTREHNELQIEPTSPTIQVARTIRQIGDELDSDPHLNGLLHKLHVTSSTAYSTFRRVAMRIFQDGQFNWGRIITLFFFGYRLTIRVLSESPIVEMIISWIARFIYEICSFWIAESGGWDAITQYIQQADWKNKYTLGLIAVGVLVTAFVTWQRYNSS
For B1, the FRET efficacy in [3] amounted to 5.84%; in [4] it was 2.81%.

B2: EGFP-tagged trBak (natural protein, Trichoplax adhaerens, UniProt A0A1B1IJN7 1-251, looked up)
chain: MSSTITIAESLENGENNDEQEEANTSRSQFRVTRAQVIRRQLSANPAHLPVSEQEVINETSSIFRSFVVESYQAERDGGIIAEEVRSFADQVQSSSNQTITPSSPTSEIGRHLAQLGDSYSVRFQNEFRLMITHLDINPGTAYRTFAGVARRLFRDGISWRRIVTLMAFGYQIAIDVMRSGVQGFLSRICNFIVRFISGEHIANWIARQGGWRAARYEGLASPGWPAIIGVATAAAASVFGVLWLSGYFRE
In the case of B2, the results for the FRET efficacy in test [3] and in test [4] were 11.2% and 5.45%, respectively.

In the case of IEPTSPTIQVARTIRQIGDELDSDPHLN [trBax BH3 peptide], the Kd is 426 nM in test [5]; 728 nM in test [6]; 3060 nM in test [7]; 877 nM in test [8]; 767 nM in [9]; 67 nM in test [10]. Also, the Kd in test [11] was 135 nM.

PSSPTSEIGRHLAQLGDSYSVRFQNE [trBak BH3 peptide]: the Kd in test [5] is 1430 nM; in test [6], 563 nM; in test [7] it was 45 nM; in [8] it was 197 nM; in test [11] it was 13 nM. In addition, the binding result in [9] and in test [10] was “binds” each time.
